Experimental data reported in patent publication US20090297440A1 (published 2009).

T1: purified recombinant C35 protein generated in E. coli (human, UniProt Q9BRT3 1-115, limits assumed)
T1 construct: Generated and purified from E. coli with cleavage of selection tags; also called hC35 protein; soluble C35 protein
T1 sequence: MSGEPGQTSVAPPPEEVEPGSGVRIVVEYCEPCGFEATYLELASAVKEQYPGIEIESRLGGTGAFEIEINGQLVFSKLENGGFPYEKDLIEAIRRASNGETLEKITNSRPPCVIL

T2: C35 protein, recombinant, bacterially synthesized (human, UniProt Q9BRT3 1-115, limits assumed)
T2 construct: also called hC35 protein; bacterially-synthesized C35
T2 sequence: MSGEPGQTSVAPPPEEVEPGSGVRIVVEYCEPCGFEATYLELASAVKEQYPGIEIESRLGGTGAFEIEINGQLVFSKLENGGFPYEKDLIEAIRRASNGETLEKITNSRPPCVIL


Columns and labels:
HLA-A*0201 = HLA-A*0201 (human, UniProt A*02:01); assay: fluorescence polarization competition, test peptide at 100 uM against fluorescent-labeled peptide on HLA-A*0201; from Ymax, calibrated with irrelevant (0%) and relevant (100%) competitor
[1] = molecular target: T1, purified recombinant C35 protein …; assay: ELISA, hybridoma supernatant on coated C35 protein
[2] = molecular target: T2, C35 protein, recombinant, bacterially …; assay: ELISA screen of hybridoma supernatants on plates coated with C35 protein

Row | Binder | % inhibition (HLA-A*0201) [%] | also measured
1 | FEIEINGQL [C35 peptide F65 to L73] | 74.8 | 
2 | hybridoma clone 1B3 antibody (antibody, mouse IgG1, V domains shown, Murine IgG1 from BCA34.hC35 immunization) VH: EVQLQESGPSLVKPSQTLSLTCSVTGDSITSGYWNWIRKFPGNKLEYVGYISYSGGTYYNPSLKSRISITRDTSKNHYYLQLNSVTTEDTATYYCARGAYYGGAFFPYFDVWGAGTTVTVSS VL: DVQITQSPSFLAASPGETITINCRASKYISKHLVWYQEKPGETKKLLIYSGSTLQSGLPSRFSGSGSGTDFTLTISSLEPEDFAMYYCQQHNEYPLTFGAGTKLELK |  | binding result [1]: binds
3 | 1B3 monoclonal antibody (antibody, V domains shown, Mouse IgG1 kappa, tested as hybridoma supernatant) VH: EVQLQESGPSLVKPSQTLSLTCSVTGDSITSGYWNWIRKFPGNKLEYVGYISYSGGTYYNPSLKSRISITRDTSKNHYYLQLNSVTTEDTATYYCARGAYYGGAFFPYFDVWGAGTTVTVSS VL: DVQITQSPSFLAASPGETITINCRASKYISKHLVWYQEKPGETKKLLIYSGSTLQSGLPSRFSGSGSGTDFTLTISSLEPEDFAMYYCQQHNEYPLTFGAGTKLELK |  | binding result [2]: binds
4 | 3E10 monoclonal antibody (antibody, V domains shown, Mouse IgG1 kappa, tested as hybridoma supernatant) VH: EVQLQESGPSLVKPSQTLSLTCSVTGDSITSGYWNWIRKFPGNKLEYVGYISYSGGTYYNPSLKSRISITRDTSKNHYYLQLNSVTTEDTATYYCARGAYYGGAFFPYFDVWGAGTTVTVSS VL: DVQITQSPSFLAASPGETITINCRASKYISKHLVWYQEKPGETKKLLIYSGSTLQSGLPSRFSGSGSGTDFTLTISSLEPEDFAMYYCQQHNEYPLTFGAGTKLELK |  | binding result [2]: binds
5 | hybridoma clone 3E10 antibody (antibody, mouse IgG1, V domains shown, Murine IgG1 kappa from BCA34.hC35 immunization) VH: EVQLQESGPSLVKPSQTLSLTCSVTGDSITSGYWNWIRKFPGNKLEYVGYISYSGGTYYNPSLKSRISITRDTSKNHYYLQLNSVTTEDTATYYCARGAYYGGAFFPYFDVWGAGTTVTVSS VL: DVQITQSPSFLAASPGETITINCRASKYISKHLVWYQEKPGETKKLLIYSGSTLQSGLPSRFSGSGSGTDFTLTISSLEPEDFAMYYCQQHNEYPLTFGAGTKLELK |  | binding result [1]: binds
6 | GTGAFEIEI [C35 peptide G61 to I69] | 46.5 | 
7 | TYLELASAV [C35 peptide T38 to V46] | 47.3 | 
8 | SVAPPPEEV [C35 peptide S9 to V17] | 96.9 | 

Further lines, with some results ahead:

Row | % inhibition (HLA-A*0201) [%] | Binder | also measured
9 | 86.4 | ITNSRPPCV [C35 peptide I105 to V113] | 
10 | 90.8 | SGVRIVVEY [C35 peptide S21 to Y29] | 
